Test results taken from patent EP0638644A1.

Experiments:
[1] = molecular target: soluble complex of ¹²⁵I-IL-12 crosslinked to human IL-12R (human) (UniProt P29459); test: immunoprecipitation of solubilized 125I-IL-12/IL-12R complex by immobilized control antibody (background)
[2] = molecular target: recombinant human IL-12 receptor (clone No. 5, SEQ ID NO:2) expressed in COS cells (human); test: equilibrium binding of labelled murine IL-12 to COS cells expressing clone 5, Scatchard, single site (Figure 19B)

Sequence of soluble complex of ¹²⁵I-IL-12 crosslinked to human IL-12R (human) (P29459 23-219, form in doubt, chain 1 of 3, other chains not shown): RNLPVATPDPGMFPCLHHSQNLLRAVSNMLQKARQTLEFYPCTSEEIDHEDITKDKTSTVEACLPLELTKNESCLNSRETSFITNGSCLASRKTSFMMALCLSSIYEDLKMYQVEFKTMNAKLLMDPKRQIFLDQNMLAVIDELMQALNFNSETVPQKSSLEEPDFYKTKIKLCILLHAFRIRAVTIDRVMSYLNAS
Sequence of soluble complex of ¹²⁵I-IL-12 crosslinked to human IL-12R (human) (P29460 23-328, form in doubt, chain 2 of 3, other chains not shown, further chain): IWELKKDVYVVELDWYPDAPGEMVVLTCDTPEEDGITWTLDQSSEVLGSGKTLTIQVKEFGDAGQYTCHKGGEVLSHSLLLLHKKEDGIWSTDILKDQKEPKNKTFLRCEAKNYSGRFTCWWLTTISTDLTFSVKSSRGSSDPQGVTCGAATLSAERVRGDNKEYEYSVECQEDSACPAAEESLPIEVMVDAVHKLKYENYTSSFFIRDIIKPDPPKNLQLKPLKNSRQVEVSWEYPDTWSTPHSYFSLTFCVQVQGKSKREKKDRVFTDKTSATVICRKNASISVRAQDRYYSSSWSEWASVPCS

Row | I.P. ASSAY (cpm bound) [1] [cpm] | Kd [2] [nM] | Substance
1 | 402 |  | Control mAb (Table 1) (antibody)
2 |  | 2.1 | Recombinant murine IL-12 (from UniProt P43431 23-215; P43432 23-335) (ligand)
